Data reported in the nanobody polyreactivity screen of Harvey et al. (2022).

Assay: yeast display, Sf9 membrane polyspecificity reagent, FACS + sequencing; frameworks hold sequencing errors
Outline: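 Genes from sorted yeast were amplified by colony PCR, read by MiSeq 2 × 250 sequencing and filtered on CDR length. These cells carried a synthetic nanobody library in Saccharomyces cerevisiae BJ5465 and were sorted by FACS into low and high (top ~1%) gates on anti-HA and streptavidin fluorescence. Polyreactivity is labelled according to the gate of origin.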

Sequence	polyreactivity (PSR sort gate)
QLQLVESGGGLVQAGGRLRLSCAASGFIFWSYAMGWYRQAPGKERELVAAISARGGSTYYADSVKGRFTISRDNSKNTVYLQMNSLKPEDTAVYYCAAPRASGYYWGKGTQVTVSS	high polyreactivity
QVQLVESGGGLVQAGGSLRLSCAASGIIFTGYAMGWYRQAPGKERELVAAISRSGGGTYYADSVKGRFTISRDNAKNTVYLQMNSLKPEDTAVDYCNRLRIAASYWQAYDYWGQGTQLTVSS	high polyreactivity
QVQLVESGGGLVQAGGSLRLSCAASGSIFSPNVMGWYRQAPGKERELVAAINGSGSRTYYADSVKGRFTISRDNAKNTVYLQMNSLKPEDTAVYYCAAGSLGRYYFKLDYWGQGTQVTVSS	high polyreactivity
QVQLVESGGGLVQAGGSLRLSCAASGSTFYSYAMGWYRQAPGKERELVAAITSRGDRTYYADSVKGRFTISRDNAKNTVYLQMNSLKPEDTAVYYCAAEQSWQGYAYYYWGQGTQVTVSS	high polyreactivity
QVQLVESGGGLVQAGGSLRLSCAASGRTFRSNAMGWFRQAPGKERELVAAISRTGRTNYADSVKGRFTISRDNAKNTVYLQMNSLKPEDTAVYYCAARGYSVPWQERYDYWGQGTQVTVSS	high polyreactivity
QVQLVESGGGLVQAGGSLRLSCAASGRNLLYYGMGWYRQAPGKERELVAVISRGGSTYYADSVKGRFTISRDNAKNTVYLQMNSLKPEDTAVYYCAKRIYYGGVATKSLMDYWGQGTQVTVSS	high polyreactivity
QVQLVESGGGLVQAGGRLRFSCAASGSNFPVYAMGWYRHAPGKERELVADITYTTGSTYYADSVKGRFTISRDNAKNTVYLQMHSLKPEDTGVYYCNARDYTWYLHLGYSTLYWGQGTQVTVSS	low polyreactivity
QVQLVESGGGLVQAGGSLRLSCAASGSIFDSYAMGWYRQAPGKERELVADITSDGSTHYADSEKGRFRISRDNAKNTVYLQMNSLKPEDTAVYYCAADYFFYLLGVPVVDVYYWGQGTQVTVSS	low polyreactivity
QVQLVESGGGLVQAGGSLRLSCAASGSTFKGNAMGWYRQAPGKERELVAAINRSGTSTYYADSVKGRFTISRDNAKNTVYLQMNSLKPEDTAVYYCAKKYFGHRFDYWGQGTQVTVSS	high polyreactivity
QVQLVESVGGLVQAGGSLRLSCAASGIIFWLSTMGWYRQAPGKERELVAAITSGGSTYYADSVKGRLTISRDNAKNTVYLQMNSLKQEDTALYYCAAVPRYRRWKYDYWGQGTQVTVSS	high polyreactivity
QVQLVESGGVLVQAGGSLRLSCAASGSIFYRYAMGWYRQAPGKERELVAANSSNGVSTYYADSVKGRFTISRDNAKNTVYLQMNSLKPEDTAVYYCARDVYASPRLYTSRYNYWGQGTQVTVSS	low polyreactivity
QVQLVESGGGLVQAGGSLRLSCAASGSIFTWYAMGWYRQAPGKERELVAAITRGGSTYADSVKGRFTISRDNAKNTVYLQMNSLKPEDSAVYYCNAVYGVYDFTYWGPGTQVTVSS	low polyreactivity
QVQLVESGGGLVQAGGSLRLSSAASGSIFGYAMGWYRQAPGKERELVARIDWSGGRTYYADSVKGRFTISRDNAKNTVYLQMYSLKPDDTAVYYCYARRYLYRGNIVDYWGQGTQVTVSS	high polyreactivity
QVQLVESGGGLVQAGGSLRLSCAASGSTFYRYAMGWYRQAPGKEREFVAAISTRGGSTHYADSVKGRFTISRDTAKNTVYLHMNSLKPEDTAVYYCNARGYYSVPSNTGIRYYRFDYWGQGTQVTVSS	high polyreactivity
QVQLVESGGGLVQAGGSLRLSCAPSVSINNHYAMGWYRQAPGKERELVAAISRSGGLTYYADSVKGRFTISRDNAKNTVYLQMNCLIAEDTAVYYCDAGTSWPWYQRDYWGQGTQVTVSS	low polyreactivity
QFQLVESGGGLFQAGGSLRLSCAASGSTFKRYAMGSYRQAPGKERELVAAISASGGSTSYADSVKGRFTISRDKAKNTVYLQMISLKPEDTAVYYCARDRFRSRFDYWGQGTQVTVSS	high polyreactivity
QVQLVESGGGLVQAGGSLRLSCAASGSTFKSYAMGWYRPAPGKERELVAAISSSGGSTYYADSVKGRFTISRDNAKNTVYLQMNSLKPEDTAVYYCNAVWVQGGIGNYWGQGTQVTVSS	low polyreactivity
QVQLVESGGGLVQAGGSLRLSCAASGITIPVYLGWYRQAPGKETELVAAISSGGSTYADSVKGRFTISRDNAKNTVYLQMNSLKPEDTAVYYCNADRWFGNYLHLTFLNDYWGQGTQVTVSS	low polyreactivity
QDQLVESGGCLVQAGGSLRLSCAASGSTFDTNSMGWSRQAPGKERELVAAISGSGVRTYYADSVKGRFSISRDNAKITVYLQMNRLNPEDTAVYYCAARGSRRGTWYDYWGQCTQVTVSS	high polyreactivity
QVQLVESGGGLVHAGGSLLLSCAASGRTLGWYAMGWYIQAPGKERELVATISITGGSTYYAVSVKGRFTISRDYAKNTVYLQMNSLKPEDTAVYYCAARHGSRRRYYYWGQGTQVTVSS	high polyreactivity
QVQLVESGGGLVQAGGSLRLSCAASGSTFSTYAMGWDRQAPGKERELVAAIRWSGGSTYYADSVKGRFTISRDNAKNTVYLQMNSLKPEDTAVYNCNAGASYFLVISQSRRDYWGQGTEVTVSS	low polyreactivity
QVQLVESGGGLVQAVGSLRLSCAASGITFNLYAMGWYRQAPGKEREFVAGITASGSSTYDADSVKGRFTISRDNAKNTVYLQMNSLKPEDTAVYYCAARWHIYYFSYVTSYAYGYWGQGTQVTVSS	high polyreactivity

Sequence	polyreactivity (PSR sort gate)
QVQLVESGGGLVQAGGSLRLSCAASGITFKGYTMGWYRQAPGKERELVATISRGGRTYAVSVKGRFTISRDNAKNTVYLQMNSLKPEDTAVYYCAADKYWAQNDYWGQGTQVTVSS	low polyreactivity
QDQLVESGGGLVQAGGSLRLSCDASGFILETNAMGWYRQAPGKERELVASITSSGSTYYADSVKGRFTISRDNAKNTVYLQMNSLKREVTAVYYCAARRYRSRGRTYGWFRYDYWGQGTQVTVSS	high polyreactivity
QVQLVESGGGLVQAGGSLRLSCAASGRIFLYYAMGWYRQAPGKERELVATISSGGSTHYADSVKGRFTISRDNAKNTVYLQMNSMKPEDTAVYYCAAYGYGRGLEPSTTEMDYWGQGTQVTVSS	low polyreactivity
QVQLVESGGGLVQAGGSLRLSCAASGSIFFPYAMGWYRQAPGKERELVAAISQSAGSTFYADSVKGRFTISRDNAKHTVYLQKNSLKPEDTAVYYCAKSGDADFYYTYYYWGQGTQVTVSS	low polyreactivity
QVQLVESGGGLVQAGGSLRLSCAASGRIFSVYAMGWYRQAPGKEREFVASISWRGGRTYYADSVKGRFTISRDNAKNTVYLQMNSLKPEDTAVYYCNAPQRYWPPYGYWGQGTQVTVSS	high polyreactivity
QVQLVESGGGLVQAGGSLRLSCAASGFTFRLYVMGWYREAPGTERELVAALSSRGGSTYYADSVKGRFTISRDNAKYTVYLQMNRLKPDDTAFYYCAADRPRCRETVDYWGHGTQVTVSS	high polyreactivity
QVQLVESGGGLVQAGGSLRLSCAASGRIYPYAMGWYRQAPGKERELVAAITSRGGTTYYADSVKGRFTISRDNAKNTVYLQMNSLKPEDSAVYYCAADQHIRVSWYLQMYYWGQGTQVTVSS	low polyreactivity
QVQLVESGGGLVQAGGSLRLSCAASVIIFSYNAMGWYRQAPGKERELVAAISYSGGSTYYADSVKGRFTISRDNAKNTVYLQMNSLKPEDTAVYYCAAEKYLGELDYWGQGTQVTVSS	low polyreactivity
QVQLEESGGGLVQAGGSLRLSCAASGRIFGAYAMGWYRQAPGKERELVAAITSRGGNTYYADSVKGRFTISRDNAKNTVYLQMNSLKPEDTAVYYCAARHDKRRQYYVGESAFDYWGQGTQVTVSS	low polyreactivity
QVQLVESGGGLVQAGGSLRLSCAASGITFKSNAMGWYRQAPGKERELVAAISRRASSTYYADSVKGRFTISRDNAKNTVYLQMNSLKPEDTAVYYCAARSTVLATVSYPFGRYYWGQGTQVTVSS	high polyreactivity
QVQLVESGGGLVQAGGSLRLSCAASGFDFSYYDMGWYRQAPGKEREFVASIDWSGGSTYYADSVKGRFTISRDNAKNTDYLQMNSLKAEATAVYYCAAELDYFPGYDYWGQGTQVTVSS	low polyreactivity
QVQLVESGGGLVQAGGSLRLSCAASGSTFGFYTMGWYRQAPGKERELVAAISRGGGRTYYADSVKGRFTISRDNAKNTVYLQMNSLKPEDTAVYYCAARSTQGRFEYWGQGTQVTVSS	high polyreactivity
QVQLVESGGGLVQAGGSLRLSCAASGFTFYHNTMGWYRQAPGKEREFVATINFIGGSTYYADSVKGRFTISRDNAKNTVYLQMNSLKPEDTAVYYCNARSRYLYFLRFDYWGQGTQVTVSS	high polyreactivity
QVQLVESGGGLVQAGGSLRLSCAASGRTFTRYSMGWYRQAPGKERELVAAISRSGGSTYYADSVKGRFTISRDNAKNTVYLQMNSLKPEDTAVYYCAADVYRDLAYDYWGQGTQVTVSS	high polyreactivity
QDQLVESGGGLLQAGGSLRLSCAASGYTFPIYAMGWYRQAPGKERELVAGISKNGGSTYYADSVKGRFTISRDNAKNTVYLQMNSLKPEDTEVYYCNASAWGRPYYRGSYFVFPGYEYWGQGTQVTVSS	low polyreactivity
QVQLVESGGGLVQAGGSLRLSSAASGSIFPYYAMGWYRQAPGKERELVAAISWSGTSTYYADSVKGRFTISRDNAKNTVYLQMNSLKPEDTAVYYCNAGYYHFYASGYDYWGQGTQVTVSS	low polyreactivity
QVQLVESWGGLVQAGGSLRLSCADSGRIFLRNTMGWYRQAPGKERELVATISKSAGSTYYADSVKGRFTISRDNAKNSVYLQMNSLKPEDTAVYYCATSRYLKLGYDYWGQGTQVTVSS	high polyreactivity
QVQLVESGGGLVQAGGSLRLSCAASGIIFDYNAMGWYRPAPGKERELVAAITSTDNTNYADSVKGRFTISRDNAKNTVYLQMNCLKPEDTAVYYCNTDYWLSVVYAMDYWGQGTQVTVSS	low polyreactivity
QVQLVESGGGLVQAGVSLRLSCDASGSIFDPYAMGWFRQAPGKEMELVAAITASGSSTYYADSVKGRFTISRDNAKNTVYLQMNSLKPEDTAVYYCAADRANWEYLLSWLGYDYWGQGTQVTVSS	low polyreactivity
QVQLVESGGGLVQAGGSLRLSCAASGSIFPAYTMGRYRQAPGKEREMVAAIPYSGARSTYYADSVKGRFTISRDNAKNTVYLQMYSLKPEDTAVYYCNARSRARYFYDMDYWGQGTLVTVSS	low polyreactivity
QVQLVESGGGLVQAGGSHRLSCAASGSIFYSYAMGWYRQAPGKERELVAAITYDTGRTYYADSVKGRFTISRDNAKNTVYLQMNSLKPEDTAVYYCAVRPGYYWGYWPRFGYWGQGTQVTVSS	low polyreactivity
